# Test results published in PMC7388967.
# How the values were obtained:
# [1] = biological target: Collagen I Rat Protein, Tail (rat collagen type I) (rat) (UniProt P02454); test: whole-cell adhesion assay (fluorescence of sfGFP-expressing bacteria); commercial 96-well plates pre-coated with rat collagen type I (GIBCO); YadA induced with 0.2 µg/ml ATc, compared with the not-induced control
# [2] = biological target: Collagen I Bovine Protein (bovine collagen type I) (bovine) (UniProt P02453); test: whole-cell adhesion assay (fluorescence of sfGFP-expressing bacteria); strain AS76; wells coated with 100 µg/ml bovine collagen type I for 30 min, with or without blocking with 50 mg/ml BSA in PBS for 30 min; YadA induced with 0.1 µg/ml ATc, compared with uninduced cells
# UniProt P02453, sequence (P02453 162-1217, chain 1 of 2): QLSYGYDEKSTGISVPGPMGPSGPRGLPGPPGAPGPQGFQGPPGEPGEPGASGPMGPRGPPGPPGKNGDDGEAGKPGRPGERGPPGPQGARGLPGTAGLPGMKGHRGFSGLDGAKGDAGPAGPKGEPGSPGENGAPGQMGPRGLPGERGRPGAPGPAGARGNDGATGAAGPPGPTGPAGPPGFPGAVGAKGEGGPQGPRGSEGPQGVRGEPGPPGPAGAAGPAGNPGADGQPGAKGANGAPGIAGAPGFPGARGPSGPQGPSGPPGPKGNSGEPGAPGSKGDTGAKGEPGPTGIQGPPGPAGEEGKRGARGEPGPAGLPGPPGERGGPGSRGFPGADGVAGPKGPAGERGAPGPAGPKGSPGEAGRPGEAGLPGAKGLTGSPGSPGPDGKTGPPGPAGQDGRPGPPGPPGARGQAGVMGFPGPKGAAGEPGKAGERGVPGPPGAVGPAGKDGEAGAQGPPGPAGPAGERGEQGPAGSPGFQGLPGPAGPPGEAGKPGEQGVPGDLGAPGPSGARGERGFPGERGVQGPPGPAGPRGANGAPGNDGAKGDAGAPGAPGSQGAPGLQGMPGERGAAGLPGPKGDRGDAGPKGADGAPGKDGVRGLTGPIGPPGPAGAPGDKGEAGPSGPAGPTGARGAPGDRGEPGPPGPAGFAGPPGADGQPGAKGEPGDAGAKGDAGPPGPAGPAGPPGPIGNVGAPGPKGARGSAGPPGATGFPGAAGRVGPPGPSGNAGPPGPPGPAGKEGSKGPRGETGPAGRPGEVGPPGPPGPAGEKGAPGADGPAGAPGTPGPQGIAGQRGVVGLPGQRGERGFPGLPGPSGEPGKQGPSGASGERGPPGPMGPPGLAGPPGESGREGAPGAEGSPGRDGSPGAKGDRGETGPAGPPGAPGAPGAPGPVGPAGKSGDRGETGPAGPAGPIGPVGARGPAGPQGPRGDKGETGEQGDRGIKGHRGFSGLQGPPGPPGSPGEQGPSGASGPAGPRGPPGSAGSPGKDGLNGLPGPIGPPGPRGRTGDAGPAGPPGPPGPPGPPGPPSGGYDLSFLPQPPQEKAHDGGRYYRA
# UniProt P02453, sequence (P02465 80-1117, chain 2 of 2, further chain): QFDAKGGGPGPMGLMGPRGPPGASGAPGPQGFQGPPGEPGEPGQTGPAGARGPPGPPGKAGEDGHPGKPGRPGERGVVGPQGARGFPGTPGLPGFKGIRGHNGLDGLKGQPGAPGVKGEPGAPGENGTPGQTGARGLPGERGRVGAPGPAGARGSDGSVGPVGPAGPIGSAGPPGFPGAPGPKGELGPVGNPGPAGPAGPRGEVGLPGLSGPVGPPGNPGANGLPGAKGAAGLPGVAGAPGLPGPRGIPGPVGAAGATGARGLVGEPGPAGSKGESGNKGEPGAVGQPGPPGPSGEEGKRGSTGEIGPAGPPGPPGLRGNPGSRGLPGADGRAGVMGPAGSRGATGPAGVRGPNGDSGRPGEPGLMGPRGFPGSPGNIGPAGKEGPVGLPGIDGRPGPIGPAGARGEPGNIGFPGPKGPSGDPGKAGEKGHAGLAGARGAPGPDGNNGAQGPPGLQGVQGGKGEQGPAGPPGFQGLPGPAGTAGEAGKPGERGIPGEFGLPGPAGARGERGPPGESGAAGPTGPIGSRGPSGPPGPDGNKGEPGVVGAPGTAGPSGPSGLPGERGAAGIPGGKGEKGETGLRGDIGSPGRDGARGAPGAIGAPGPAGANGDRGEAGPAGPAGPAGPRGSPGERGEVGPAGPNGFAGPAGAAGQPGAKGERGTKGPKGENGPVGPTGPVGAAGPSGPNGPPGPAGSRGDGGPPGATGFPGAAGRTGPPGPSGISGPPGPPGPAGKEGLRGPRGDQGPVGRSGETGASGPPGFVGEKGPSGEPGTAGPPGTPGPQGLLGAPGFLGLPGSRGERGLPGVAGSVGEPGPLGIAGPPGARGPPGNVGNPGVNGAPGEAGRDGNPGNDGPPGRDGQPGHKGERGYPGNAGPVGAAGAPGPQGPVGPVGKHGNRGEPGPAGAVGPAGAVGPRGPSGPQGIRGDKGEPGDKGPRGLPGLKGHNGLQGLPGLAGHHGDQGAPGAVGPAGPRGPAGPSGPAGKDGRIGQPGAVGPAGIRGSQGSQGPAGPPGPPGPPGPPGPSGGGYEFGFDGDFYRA
# UniProt P02454, sequence (P02454 152-1207, chain 1 of 2): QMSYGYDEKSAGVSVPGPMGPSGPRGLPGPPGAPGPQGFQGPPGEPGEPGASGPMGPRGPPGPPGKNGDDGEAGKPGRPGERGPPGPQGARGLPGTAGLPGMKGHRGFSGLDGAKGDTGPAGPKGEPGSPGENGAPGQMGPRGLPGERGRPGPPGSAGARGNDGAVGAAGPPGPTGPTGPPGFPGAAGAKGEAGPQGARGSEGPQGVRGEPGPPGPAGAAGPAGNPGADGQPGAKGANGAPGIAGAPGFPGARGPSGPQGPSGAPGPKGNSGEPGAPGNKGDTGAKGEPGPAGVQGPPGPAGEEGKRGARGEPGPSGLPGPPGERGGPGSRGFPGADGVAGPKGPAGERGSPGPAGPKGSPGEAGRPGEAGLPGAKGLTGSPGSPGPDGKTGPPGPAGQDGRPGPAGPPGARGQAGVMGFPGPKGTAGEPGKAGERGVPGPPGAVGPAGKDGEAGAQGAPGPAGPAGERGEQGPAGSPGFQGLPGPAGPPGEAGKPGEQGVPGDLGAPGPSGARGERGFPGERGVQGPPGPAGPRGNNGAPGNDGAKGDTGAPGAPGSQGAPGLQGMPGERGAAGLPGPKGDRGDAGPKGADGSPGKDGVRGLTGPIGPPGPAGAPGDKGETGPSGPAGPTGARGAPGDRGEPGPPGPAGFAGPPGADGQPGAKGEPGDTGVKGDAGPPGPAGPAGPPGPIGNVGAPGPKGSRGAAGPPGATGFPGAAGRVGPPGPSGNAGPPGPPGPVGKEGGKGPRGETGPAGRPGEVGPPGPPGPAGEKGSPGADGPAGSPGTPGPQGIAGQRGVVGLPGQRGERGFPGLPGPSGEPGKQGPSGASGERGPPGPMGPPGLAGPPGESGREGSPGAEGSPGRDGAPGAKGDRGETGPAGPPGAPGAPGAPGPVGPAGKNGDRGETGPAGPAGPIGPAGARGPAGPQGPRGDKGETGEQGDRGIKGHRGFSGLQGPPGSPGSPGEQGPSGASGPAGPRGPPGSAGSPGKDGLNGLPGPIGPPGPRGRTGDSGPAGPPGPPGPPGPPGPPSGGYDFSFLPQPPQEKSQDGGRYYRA
# UniProt P02454, sequence (P02466 86-1125, chain 2 of 2, further chain): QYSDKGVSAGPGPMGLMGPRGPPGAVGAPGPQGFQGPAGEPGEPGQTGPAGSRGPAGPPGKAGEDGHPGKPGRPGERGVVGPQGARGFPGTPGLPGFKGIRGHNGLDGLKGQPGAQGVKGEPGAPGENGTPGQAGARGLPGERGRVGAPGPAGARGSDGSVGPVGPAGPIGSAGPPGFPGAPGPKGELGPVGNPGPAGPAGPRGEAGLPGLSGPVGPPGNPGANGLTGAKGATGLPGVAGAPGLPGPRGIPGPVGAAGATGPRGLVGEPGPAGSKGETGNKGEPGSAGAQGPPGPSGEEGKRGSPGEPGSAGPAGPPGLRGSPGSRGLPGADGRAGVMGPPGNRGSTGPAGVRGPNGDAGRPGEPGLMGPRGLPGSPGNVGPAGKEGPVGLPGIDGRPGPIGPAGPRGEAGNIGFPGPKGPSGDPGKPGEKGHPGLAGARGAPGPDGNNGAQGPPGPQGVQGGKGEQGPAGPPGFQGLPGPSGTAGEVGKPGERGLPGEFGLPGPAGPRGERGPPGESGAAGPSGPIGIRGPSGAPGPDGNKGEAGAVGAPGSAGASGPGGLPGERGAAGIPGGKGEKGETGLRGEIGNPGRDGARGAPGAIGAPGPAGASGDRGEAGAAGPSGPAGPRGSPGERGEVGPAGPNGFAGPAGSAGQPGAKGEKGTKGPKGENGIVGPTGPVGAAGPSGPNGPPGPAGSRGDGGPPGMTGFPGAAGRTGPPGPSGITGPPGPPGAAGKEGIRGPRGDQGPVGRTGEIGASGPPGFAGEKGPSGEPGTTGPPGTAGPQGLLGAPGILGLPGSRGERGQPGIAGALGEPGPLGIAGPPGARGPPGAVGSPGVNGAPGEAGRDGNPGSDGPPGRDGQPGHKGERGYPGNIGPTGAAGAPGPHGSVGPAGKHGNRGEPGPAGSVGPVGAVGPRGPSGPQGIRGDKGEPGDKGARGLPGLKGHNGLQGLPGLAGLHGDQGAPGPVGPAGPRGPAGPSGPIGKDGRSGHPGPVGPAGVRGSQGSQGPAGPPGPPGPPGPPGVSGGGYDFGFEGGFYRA
substance,measurement,setting,value
"Yersinia enterocolitica Adhesin A (YadA), wild type, on the surface of E. coli cells (from UniProt A1JUB7 26-422) (natural protein)","fold difference of signal, induced against not-induced control",[1],2.5 fold
same,"fold change of signal, YadA-expressing against uninduced cells (collagen-coated, BSA-blocked wells)",[2],4.1 fold
same,"fold change of signal, YadA-expressing against uninduced cells (collagen-coated, not BSA-blocked wells)",[2],4.4 fold
